First the molecules themselves.
B1: HDV Ribozyme (parent)
chain: GGCCGGCAUGGUCCCAGCCUCCUCGCUGGCGCCGGCUGGGCAACAUUCCGAGGGGACCGUCCCCUCGGUAAUGGCGAAUGGGACCCA

In this series the parent is B1. In words: self-cleavage, relative activity (ratio to wild type); higher = more cleavage; co-transcriptional.
For the variant C4A C64U, the self-cleavage was 0.277. The value for C3U G10U was 0.372; that for C3U G10C was 0.762; that for C3A U27C was 0.217. The value for C4A C84A was 0.192; that for C4A C84G was 0.138.

Take C3G G25A: the self-cleavage worked out at 0.0511. The value for C3G G25C was 0.0292; that for C3U A8U was 0.656; that for C3U A8G was 0.554. The value for C3U C48G was 0.641; that for C3U C48A was 0.675.

As for C3U C61U, the self-cleavage stood at 0.923. The value for C3U U60C was 0.943. The value for C3U C32A was 0.053; that for C3U C32G was 0.0769; that for C3G A78U was 0.125. Turning to C4A C58U, the self-cleavage is 0.424.

Take C4A C58G: the self-cleavage came out at 0.259. For the variant C3G U23G, the self-cleavage worked out at 0.0791. Take C3G U23A: the self-cleavage was 0.929.

C4A C14G: the self-cleavage was found to be 0.175. The value for C3G G39A was 0.0594; that for C3G G39C was 0.157. As for C3A U69A, the self-cleavage came to 0.406. Regarding C3A U69G, the self-cleavage amounted to 0.567. The value for C3G G10A was 0.107; that for C3U U20A was 0.0308.

Turning to C3U C58A, the self-cleavage amounted to 0.818.

On to C3U C58G, for which the self-cleavage stood at 0.767. The value for C3U G54C was 0.636; that for C3U G54A was 0.633; that for C3U C13A was 0.138. Regarding C3G A43C, the self-cleavage worked out at 0.261. For the variant C3G A43U, the self-cleavage is 0.233. The value for C3G G35U was 1.33; that for C3U G40A was 0.857.

Regarding C3U G40U, the self-cleavage came to 0.594.

For the variant C4A C19A, the self-cleavage is 0.0386. In the case of C3G G31A, the self-cleavage came out at 0.0608. The value for C3G G31C was 0.0455; that for C3U G38A was 0.0811. The value for C3U G38C was 0.122. The value for C3U G38U was 0.111; that for C3U C22G was 0.0193. Take C3U C22A: the self-cleavage came out at 0.161. The value for C4A G6C was 0.0594; that for C3U A71C was 0.427; that for C3U A71U was 0.742. The value for C3U G29U was 0.0723. The value for C4A C49A was 0.424; that for C4A C49U was 0.282. As to C3U C4G, the self-cleavage was 0. The value for C3U C4U was 0.655; that for C3U C26G was 0.989; that for C4A C13U was 0.0739. Turning to C3U G67C, the self-cleavage is 0.772.

Take C3U U27C: the self-cleavage is 0.262. The value for C3U U27G was 0.723; that for C4A C57U was 0.237. The value for C4A C57A was 0.541; that for C4A C36A was 0.0314; that for C4A C36G was 0.0875. The value for C3U G82C was 0.0779.

With C3G U69A, the self-cleavage was 0.582.

Consider C3G G28U, for which the self-cleavage came to 0.0357. As to C3G G28A, the self-cleavage amounted to 0.0326. The value for C3G was 0.753; that for C3U was 0.802. C3U A83G: the self-cleavage amounted to 0.554.

C3U A83C: the self-cleavage came to 0.318. The value for C3U C86G was 0.848. Regarding C3U U12G, the self-cleavage came out at 0.429. Consider C3U U12A, for which the self-cleavage was 0.0817. The value for C3U U65C was 0.78; that for C3U U65A was 0.872; that for C3U G34U was 0.141. The value for C3U C44A was 0.492; that for C3U U69A was 0.831. The value for C3U U72A was 0.684. Consider C4A C26G, for which the self-cleavage was found to be 0.348. As to C3G C14U, the self-cleavage was 0.817. The value for C3G C14G was 0.268; that for C3G C41G was 0.241; that for C4A C66A was 0.177. The value for C3G C13A was 0.0545; that for C3G C13G was 0.0504. The value for C4A G35A was 0.0733. With C3G U47C, the self-cleavage was 0.54. The value for C3G U47A was 0.594; that for C3G U47G was 0.457; that for C3U G73C was 0.304.

On to C4A G28A, for which the self-cleavage was 0.0489. The value for C4A G28U was 0.0692.

Regarding C3U U46A, the self-cleavage worked out at 0.628. The value for C3U U46C was 0.567; that for C3U U46G was 0.446; that for C4A A42U was 0.0997. The value for C4A A42C was 0.0332. The value for C3G C36U was 0.155; that for C3G C36A was 0.0288; that for C3G C30U was 0.156. Turning to C3G C24U, the self-cleavage amounted to 0.196. The value for C3G C24G was 0.102. The value for C3G C24A was 0.

Consider C3U C7G, for which the self-cleavage came out at 0. The value for C3U C7A was 0.205. The value for C3U G50A was 0.682. The value for C4A C7G was 0.104; that for C4A C7U was 0.0519. Regarding C3A U37G, the self-cleavage came out at 0.0685.

Turning to C3A U37C, the self-cleavage is 0.661. The value for C4A C44A was 0.148. The value for C3U G81U was 0.187; that for C3U G81C was 0.0563; that for C3G A77U was 0.0297.

In the case of C3G A77G, the self-cleavage turned out to be 0.237. Take C4A A43C: the self-cleavage was determined as 0.

For the variant C3A U23C, the self-cleavage is 0.46. The value for C3G G80U was 0.0801.

Take C3G G50A: the self-cleavage was 0.589. The value for C3U G5A was 0.123.

Turning to C3G C62G, the self-cleavage is 0.169. As to C3G C62A, the self-cleavage worked out at 0.789. The value for C3U G17A was 0.361. The value for C4A A78G was 0.147; that for C3G U65G was 0.751; that for C3G U65A was 0.648.

With C4A G40U, the self-cleavage stood at 0.199. The value for C4A G40A was 0.214; that for C4A C15U was 0.0378; that for C4A C15G was 0.166. The value for C3U U79G was 0.489. The value for C3U U79C was 0.342. Consider C3U C63U, for which the self-cleavage stood at 0.645. The value for C4A C30A was 0.0519; that for C3U C33U was 0.769; that for C3G U46C was 0.373.

Take C3G U46A: the self-cleavage was 0.253. The value for C4A G10U was 0.0733; that for C4A A77C was 0.0462. As for C3A U46G, the self-cleavage was found to be 0.026. The value for C3U C62U was 0.762; that for C3U C62A was 0.973; that for C4A G31U was 0. C3U G80A: the self-cleavage stood at 0.175. As to C3U G80U, the self-cleavage amounted to 0.114.

Regarding C3U G80C, the self-cleavage is 0.159. The value for C3U C84G was 0.636. The value for C3U C84A was 0.665. As to C3G G73A, the self-cleavage was found to be 0.211.

Regarding C3G G73U, the self-cleavage is 0.0583. The value for C3G A83C was 0.191; that for C3G C18U was 0.04. The value for C3G C18G was 0.0475; that for C3G C18A was 0.0542; that for C3G G59U was 0.899. The value for C3G G59A was 0.831. For the variant C4A C63A, the self-cleavage came out at 0.354. The value for C3A U65G was 0.718; that for C4A A70C was 0.136; that for C4A G29A was 0.0244. The value for C4A C32U was 0.0489. The value for C4A C32G was 0; that for C3U A56G was 0.831. Turning to C3G G29C, the self-cleavage worked out at 0.0396. The value for C3G G6U was 0.0665.

Source of the values: the RNAGym collection of RNA variant scans (doi:10.7554/elife.80360).
